T1: Human OSM (human, UniProt P13725 26-221)
T1 construct: Recombinant human OSM; also called hOSM; human Oncostatin M
T1 sequence: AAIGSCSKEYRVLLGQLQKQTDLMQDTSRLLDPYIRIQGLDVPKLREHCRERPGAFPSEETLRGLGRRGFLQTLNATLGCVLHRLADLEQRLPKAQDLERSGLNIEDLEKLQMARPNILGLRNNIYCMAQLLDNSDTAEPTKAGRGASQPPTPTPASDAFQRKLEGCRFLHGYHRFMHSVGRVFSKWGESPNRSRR


target: T1, Human OSM; test: BIAcore kinetics, transfection supernatant

Kd	koff	kon	Binder
0.435 nM	0.00016 s⁻¹	369000 M⁻¹ s⁻¹	Humanised 10G8 H0L0 (antibody, V domains shown) VH: EVQLVESGGGLVQPGGSLRLSCAASGFTFSNYAMSWVRQAPGKGLEWVATISDGGSFTYYLDNVRGRFTISRDNAKNSLYLQMNSLRAEDTAVYYCARDVGHTTFWYFDVWGRGTLVTVSS VL: DIVMTQSPDSLAVSLGERATINCRASKSVSAAGYNFMHWYQQKPGQPPKLLIYYASNLESGVPDRFSGSGSGTDFTLTISSLQAEDVAVYYCLHSREFPFTFGGGTKVEIK
0.398 nM	0.000145 s⁻¹	363000 M⁻¹ s⁻¹	Humanised 10G8 H2L0 (antibody, V domains shown) VH: EVQLVESGGGLVQPGGSLRLSCAASGFTFSNYAMSWVRQAPGKGLEWVATISDGGSFTYYLDNVRGRFTISRDNAKNSLYLQMNSLRAEDTAVYYCARDVGHTTFWYFDVWGSGTLVTVSS VL: DIVMTQSPDSLAVSLGERATINCRASKSVSAAGYNFMHWYQQKPGQPPKLLIYYASNLESGVPDRFSGSGSGTDFTLTISSLQAEDVAVYYCLHSREFPFTFGGGTKVEIK
0.344 nM	0.000127 s⁻¹	371000 M⁻¹ s⁻¹	Humanised 10G8 H1L3 (antibody, V domains shown) VH: EMQLVESGGGLVQPGGSLRLSCAASGFTFSNYAMSWVRQAPGKGLEWVATISDGGSFTYYLDNVRGRFTISRDNAKNSLYLQMNSLRAEDTAVYYCARDVGHTTFWYFDVWGRGTLVTVSS VL: DIVMTQSPDSLAVSLGERATINCRASKSVSAAGYNFMHWYQQKPGQPPKLLIYYASNLESGVPDRFSGSGSGTDFTLTISSLQAEDVAVYYCLHSREFPFTFGGGTNVEIK
0.375 nM	0.000137 s⁻¹	365000 M⁻¹ s⁻¹	Humanised 10G8 H0L2 (antibody, V domains shown) VH: EVQLVESGGGLVQPGGSLRLSCAASGFTFSNYAMSWVRQAPGKGLEWVATISDGGSFTYYLDNVRGRFTISRDNAKNSLYLQMNSLRAEDTAVYYCARDVGHTTFWYFDVWGRGTLVTVSS VL: DIVMTQSPDSLAVSLGERATINCRASKSVSAAGYNFMHWYQQKPGQPPKLLIYYASNLESGVPDRFSGSGSGTDFTLTISSLQAEDVVVYYCLHSREFPFTFGGGTKVEIK
0.398 nM	0.00015 s⁻¹	376000 M⁻¹ s⁻¹	Humanised 10G8 H2L3 (antibody, V domains shown) VH: EVQLVESGGGLVQPGGSLRLSCAASGFTFSNYAMSWVRQAPGKGLEWVATISDGGSFTYYLDNVRGRFTISRDNAKNSLYLQMNSLRAEDTAVYYCARDVGHTTFWYFDVWGSGTLVTVSS VL: DIVMTQSPDSLAVSLGERATINCRASKSVSAAGYNFMHWYQQKPGQPPKLLIYYASNLESGVPDRFSGSGSGTDFTLTISSLQAEDVAVYYCLHSREFPFTFGGGTNVEIK
0.388 nM	0.000145 s⁻¹	374000 M⁻¹ s⁻¹	Humanised 10G8 H0L3 (antibody, V domains shown) VH: EVQLVESGGGLVQPGGSLRLSCAASGFTFSNYAMSWVRQAPGKGLEWVATISDGGSFTYYLDNVRGRFTISRDNAKNSLYLQMNSLRAEDTAVYYCARDVGHTTFWYFDVWGRGTLVTVSS VL: DIVMTQSPDSLAVSLGERATINCRASKSVSAAGYNFMHWYQQKPGQPPKLLIYYASNLESGVPDRFSGSGSGTDFTLTISSLQAEDVAVYYCLHSREFPFTFGGGTNVEIK
0.387 nM	0.000142 s⁻¹	368000 M⁻¹ s⁻¹	Humanised 10G8 H2L2 (antibody, V domains shown) VH: EVQLVESGGGLVQPGGSLRLSCAASGFTFSNYAMSWVRQAPGKGLEWVATISDGGSFTYYLDNVRGRFTISRDNAKNSLYLQMNSLRAEDTAVYYCARDVGHTTFWYFDVWGSGTLVTVSS VL: DIVMTQSPDSLAVSLGERATINCRASKSVSAAGYNFMHWYQQKPGQPPKLLIYYASNLESGVPDRFSGSGSGTDFTLTISSLQAEDVVVYYCLHSREFPFTFGGGTKVEIK
0.445 nM	0.000163 s⁻¹	365000 M⁻¹ s⁻¹	Humanised 10G8 H1L2 (antibody, V domains shown) VH: EMQLVESGGGLVQPGGSLRLSCAASGFTFSNYAMSWVRQAPGKGLEWVATISDGGSFTYYLDNVRGRFTISRDNAKNSLYLQMNSLRAEDTAVYYCARDVGHTTFWYFDVWGRGTLVTVSS VL: DIVMTQSPDSLAVSLGERATINCRASKSVSAAGYNFMHWYQQKPGQPPKLLIYYASNLESGVPDRFSGSGSGTDFTLTISSLQAEDVVVYYCLHSREFPFTFGGGTKVEIK
0.425 nM	0.000162 s⁻¹	381000 M⁻¹ s⁻¹	Humanised 10G8 H1L0 (antibody, V domains shown) VH: EMQLVESGGGLVQPGGSLRLSCAASGFTFSNYAMSWVRQAPGKGLEWVATISDGGSFTYYLDNVRGRFTISRDNAKNSLYLQMNSLRAEDTAVYYCARDVGHTTFWYFDVWGRGTLVTVSS VL: DIVMTQSPDSLAVSLGERATINCRASKSVSAAGYNFMHWYQQKPGQPPKLLIYYASNLESGVPDRFSGSGSGTDFTLTISSLQAEDVAVYYCLHSREFPFTFGGGTKVEIK

target: T1, Human OSM; test: SPR (ProteOn XPR36 or Biacore T100), captured supernatant, OSM as analyte
Experimental: The initial kinetic analyses for the CDRH3 screen were carried out on the ProteOn XPR36 (Biorad Laboratories) and certain supernatants were selected for more accurate kinetic analysis on the BiaCore T100.
For the ProteOn analysis, anti-human IgG (GE Healthcare/Biacore BR-1008-39) was coupled to a GLM chip (Biorad Laboratories 176-5012) by primary amine coupling. The CDRH3 variants were captured directly on to this surface and recombinant human OSM was passed over the captured antibody surface at 256, 64, 16, 4 and 1 nM, with a buffer injection alone (i.e. 0 nM) used to double reference the binding curves. Following the OSM binding event, the capture surfaces were regenerated: with 3M MgCl₂ the regeneration removed the previously captured antibody ready for another cycle of capture and binding analysis. The data was then fitted to the 1:1 model (with mass transport) inherent to the ProteOn analysis software. The run was carried out using HBS-EP (Biacore/GE-Healthcare BR-1006-69) and the analysis temperature was 25° C.
A similar method was used for analysis of constructs using the Biacore T100, anti-human IgG (GE Healthcare/Biacore BR-1008-39) was coupled to a CM5 chip (GE Healthcare/Biacore BR-1006-68) by primary amine coupling, antibodies were captured on this surface and recombinant human OSM was passed over the captured antibody surface at 256, 64, 16, 4 and 1 nM, with a buffer injection alone (i.e. 0 nM) used to double reference the binding curves. Regeneration was by using pulses of 3M 3M MgCl₂ or 100 mM phosphoric acid or using both reagents. The data was fitted to the 1:1 model inherent to the Biacore T100 analysis software. The run was carried out using HBS-EP (Biacore/GE-Healthcare BR-1006-69) and the analysis temperature was 25° C.

Kd	Binder
0.576 nM	Pos 95 Ala (antibody, V domains shown, the same holds for f2 to f171; also called CDRH3 D95>A) VH: EVQLVESGGGLVQPGGSLRLSCAASGFTFSSYAMSWVRQAPGKGLEWVATISDGGSFTYYLDNVRGRFTISRDNAKNSLYLQMNSLRAEDTAVYYCARAVGHTTFWYFDVWGRGTLVTVSS VL: DIVMTQSPDSLAVSLGERATINCRASKSVSAAGYNFMHWYQQKPGQPPKVLIYYASNLESGVPDRFSGSGSGTDFTLTISSLQAEDVAVYYCLHSREFPFTFGGGTKVEIKR
0.649 nM	Pos 95 Met (antibody, V domains shown, also called CDRH3 D95>M) VH: EVQLVESGGGLVQPGGSLRLSCAASGFTFSSYAMSWVRQAPGKGLEWVATISDGGSFTYYLDNVRGRFTISRDNAKNSLYLQMNSLRAEDTAVYYCARMVGHTTFWYFDVWGRGTLVTVSS VL: DIVMTQSPDSLAVSLGERATINCRASKSVSAAGYNFMHWYQQKPGQPPKVLIYYASNLESGVPDRFSGSGSGTDFTLTISSLQAEDVAVYYCLHSREFPFTFGGGTKVEIKR
0.488 nM	Pos 96 Gly (antibody, V domains shown, also called CDRH3 V96>G) VH: EVQLVESGGGLVQPGGSLRLSCAASGFTFSSYAMSWVRQAPGKGLEWVATISDGGSFTYYLDNVRGRFTISRDNAKNSLYLQMNSLRAEDTAVYYCARDGGHTTFWYFDVWGRGTLVTVSS VL: DIVMTQSPDSLAVSLGERATINCRASKSVSAAGYNFMHWYQQKPGQPPKVLIYYASNLESGVPDRFSGSGSGTDFTLTISSLQAEDVAVYYCLHSREFPFTFGGGTKVEIKR
0.785 nM	Pos 95 Glu (antibody, V domains shown, also called CDRH3 D95>E) VH: EVQLVESGGGLVQPGGSLRLSCAASGFTFSSYAMSWVRQAPGKGLEWVATISDGGSFTYYLDNVRGRFTISRDNAKNSLYLQMNSLRAEDTAVYYCAREVGHTTFWYFDVWGRGTLVTVSS VL: DIVMTQSPDSLAVSLGERATINCRASKSVSAAGYNFMHWYQQKPGQPPKVLIYYASNLESGVPDRFSGSGSGTDFTLTISSLQAEDVAVYYCLHSREFPFTFGGGTKVEIKR
0.57 nM	Pos 95 Gln (antibody, V domains shown, also called CDRH3 D95>Q) VH: EVQLVESGGGLVQPGGSLRLSCAASGFTFSSYAMSWVRQAPGKGLEWVATISDGGSFTYYLDNVRGRFTISRDNAKNSLYLQMNSLRAEDTAVYYCARQVGHTTFWYFDVWGRGTLVTVSS VL: DIVMTQSPDSLAVSLGERATINCRASKSVSAAGYNFMHWYQQKPGQPPKVLIYYASNLESGVPDRFSGSGSGTDFTLTISSLQAEDVAVYYCLHSREFPFTFGGGTKVEIKR
0.499 nM	Pos 95 His (antibody, V domains shown, also called CDRH3 D95>H) VH: EVQLVESGGGLVQPGGSLRLSCAASGFTFSSYAMSWVRQAPGKGLEWVATISDGGSFTYYLDNVRGRFTISRDNAKNSLYLQMNSLRAEDTAVYYCARHVGHTTFWYFDVWGRGTLVTVSS VL: DIVMTQSPDSLAVSLGERATINCRASKSVSAAGYNFMHWYQQKPGQPPKVLIYYASNLESGVPDRFSGSGSGTDFTLTISSLQAEDVAVYYCLHSREFPFTFGGGTKVEIKR
0.568 nM	Pos 95 Leu (antibody, V domains shown, also called CDRH3 D95>L) VH: EVQLVESGGGLVQPGGSLRLSCAASGFTFSSYAMSWVRQAPGKGLEWVATISDGGSFTYYLDNVRGRFTISRDNAKNSLYLQMNSLRAEDTAVYYCARLVGHTTFWYFDVWGRGTLVTVSS VL: DIVMTQSPDSLAVSLGERATINCRASKSVSAAGYNFMHWYQQKPGQPPKVLIYYASNLESGVPDRFSGSGSGTDFTLTISSLQAEDVAVYYCLHSREFPFTFGGGTKVEIKR
0.517 nM	Pos 95 Gly (antibody, V domains shown, also called CDRH3 D95>G) VH: EVQLVESGGGLVQPGGSLRLSCAASGFTFSSYAMSWVRQAPGKGLEWVATISDGGSFTYYLDNVRGRFTISRDNAKNSLYLQMNSLRAEDTAVYYCARGVGHTTFWYFDVWGRGTLVTVSS VL: DIVMTQSPDSLAVSLGERATINCRASKSVSAAGYNFMHWYQQKPGQPPKVLIYYASNLESGVPDRFSGSGSGTDFTLTISSLQAEDVAVYYCLHSREFPFTFGGGTKVEIKR
